Starred links: 1 amine or outer side, 2 acyl side, 3 side chain; linkers in the order of their positions; H or OH if unused. Positions of bridges follow the written chain, without caps; N, C: chain ends. Non-standard residues stand in square brackets, D forms with d. Primed or numbered codes have the meaning given here. No end group written: not given here. ξ: configuration not given here. *: point of attachment. PyrS2″ = (S)-3-amino-1-((pent-4-en-1-yloxy)carbonyl)pyrrolidine-3-carboxylic acid (stapling residue), C=CCCCOC(=O)N1CC[C@@](N[*:1])(C(=O)[*:2])C1; B5(4) = 2,2-bis(4-pentenyl)glycine = 2-amino-2-(pent-4-en-1-yl)hept-6-enoic acid (stitching residue), C=CCCCC(CCCC=C)(N[*:1])C(=O)[*:2]; B5(5) = 2,2-bis(4-pentenyl)glycine, 2-amino-2-(pent-4-en-1-yl)hept-6-enoic acid (stitching residue), C=CCCCC(CCCC=C)(N[*:1])C(=O)[*:2]; B5(21) = 2-amino-2-(pent-4-en-1-yl)hept-6-enoic acid, bis(4-pentenyl)glycine (stitching residue), C=CCCCC(CCCC=C)(N[*:1])C(=O)[*:2]; TfeGA = (S)-2-amino-3-((carboxymethyl)(2,2,2-trifluoroethyl)amino)propanoic acid, O=C([C@H](CN(CC(=O)[*:3])CC(F)(F)F)N[*:1])[*:2]; PyrS2 = (S)-3-amino-1-((pent-4-en-1-yloxy)carbonyl)pyrrolidine-3-carboxylic acid, C=CCCCOC(=O)N1CC[C@@](N[*:1])(C(=O)[*:2])C1; B5(3) = 2,2-bis(4-pentenyl)glycine (stitching residue), C=CCCCC(CCCC=C)(N[*:1])C(=O)[*:2]; B5 = 2-amino-2-(pent-4-en-1-yl)hept-6-enoic acid, C=CCCCC(CCCC=C)(N[*:1])C(=O)[*:2]; Phe(3-COOH) = N[C@@H](Cc1cccc(C(=O)O)c1)C(=O)O; 2F3MeF = Cc1cccc(C[C@H](N[*:1])C(=O)[*:2])c1F; Phe(2-Cl) = N[C@@H](Cc1ccccc1Cl)C(=O)O; Bta = N[C@@H](Cc1csc2ccccc12)C(=O)O; Lys(iPr) = CC(C)NCCCC[C@H](N)C(=O)O; hTyr = N[C@@H](CCc1ccc(O)cc1)C(=O)O; αAllylPro = C=CC[C@@]1(C(=O)O)CCCN1; tBuAla = CC(C)(C)C[C@H](N)C(=O)O; 3Thi = N[C@@H](Cc1ccsc1)C(=O)O; Cha = N[C@@H](CC1CCCCC1)C(=O)O; Thr(ol) = C[C@@H](O)[C@H](N)CO; ξβ3hD = NC(CC(=O)O)CC(=O)O; hSer = N[C@@H](CCO)C(=O)O; iPr = CC(C)*

The first experiment concerns the target full-length beta-Catenin (Uniprot ID P35222) (Homo sapiens (Human)) (UniProt P35222). Kind of experiment: fluorescence polarization competition; full-length beta-catenin, competitor 5FAM-TCF4(10-53) probe. In general terms: Polarisation of emitted light reports the rotation of a fluorescent probe.
Target sequence in this assay (P35222 2-781 limits assumed): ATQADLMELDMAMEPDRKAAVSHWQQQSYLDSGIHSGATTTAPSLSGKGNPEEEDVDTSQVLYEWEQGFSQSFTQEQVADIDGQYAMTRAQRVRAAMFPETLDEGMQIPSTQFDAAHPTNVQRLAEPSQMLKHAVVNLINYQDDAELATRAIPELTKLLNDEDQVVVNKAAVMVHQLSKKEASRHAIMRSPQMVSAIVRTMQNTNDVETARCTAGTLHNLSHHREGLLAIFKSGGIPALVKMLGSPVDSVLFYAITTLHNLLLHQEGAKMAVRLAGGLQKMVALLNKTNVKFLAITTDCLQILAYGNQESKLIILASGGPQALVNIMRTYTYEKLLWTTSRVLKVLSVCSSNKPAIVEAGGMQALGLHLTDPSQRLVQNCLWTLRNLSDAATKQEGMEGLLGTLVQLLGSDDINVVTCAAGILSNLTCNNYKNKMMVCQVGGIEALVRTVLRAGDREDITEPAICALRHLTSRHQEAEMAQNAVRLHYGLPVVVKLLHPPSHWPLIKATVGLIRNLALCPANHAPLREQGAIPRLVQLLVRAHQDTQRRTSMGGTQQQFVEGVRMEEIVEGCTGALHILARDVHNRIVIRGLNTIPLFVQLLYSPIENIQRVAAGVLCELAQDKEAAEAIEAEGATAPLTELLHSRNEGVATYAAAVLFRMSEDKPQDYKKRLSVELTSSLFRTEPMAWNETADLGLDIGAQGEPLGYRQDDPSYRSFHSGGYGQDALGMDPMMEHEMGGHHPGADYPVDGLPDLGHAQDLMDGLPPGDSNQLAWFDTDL
The IC50 is the concentration needed to halve the response being measured. A higher IC50 goes with weaker potency. Molecule Ac-[αAllylPro]D[Cha][B5(4)]DTAAFT[PyrS2″][3Thi][Bta]Q-NH2 (staple 1-4, 4-11) [I-1173] came in with an IC50 of 12 nM.

In the case of Ac-[αAllylPro][ξβ3hD][tBuAla][B5(4)]D[TfeGA]AAFN[PyrS2″][3Thi][Bta]Q-NH2 (staple 1-4, 4-11) [I-1161], the IC50 came to 24 nM.

The molecule Ac-[αAllylPro]D[tBuAla][B5(4)]DTAAFT[PyrS2″][3Thi][Bta]Q-NH2 (staple 1-4, 4-11) [I-1166] gave an IC50 of 14 nM.

In the case of Ac-[αAllylPro]D[tBuAla][B5(21)]DTAAFL[PyrS2″][Phe(2-Cl)][Bta]S-NH2 (staple 1-4, 4-11) [I-1172], the half-inhibitory concentration (IC50) is 45 nM.

With Ac-[αAllylPro]D[tBuAla][B5(21)]DTAAFL[PyrS2″][3Thi][Bta]S-NH2 (staple 1-4, 4-11) [I-1171], the IC50 stood at 70 nM.

In turn, Ac-[αAllylPro]D[tBuAla][B5(21)]DTAAFT[PyrS2″][Phe(2-Cl)][Bta]Q-NH2 (staple 1-4, 4-11) [I-1168] had an IC50 of 25 nM.

As to Ac-[αAllylPro]D[tBuAla][B5(4)]DTAAFL[PyrS2″][3Thi][Bta]Q-NH2 (staple 1-4, 4-11) [I-1167], the IC50 came out at 34 nM.

The term EC50 denotes the concentration that produces a half-maximal response. Low readings indicate greater potency, high ones weaker potency. Molecule Ac-[αAllylPro]D[tBuAla][B5(4)]DD[Lys(iPr)]AFL[PyrS2″][Phe(2-Cl)][Bta][Thr(ol)] (staple 1-4, 4-11) [I-1313] yielded an EC50 of 12 nM.

Regarding Ac-[αAllylPro]D[tBuAla][B5(4)]DTAAFT[PyrS2″][3Thi][Bta]S-NH2 (staple 1-4, 4-11) [I-1170], the IC50 was 15 nM.

[αAllylPro]D[tBuAla][B5]DDAAFF[PyrS2][Cha][Bta]Q-NH2 (staple 1-4, 4-11) [I-1331] returned a concentration for a half-maximal effect (EC50) of 75 nM.

In turn, Ac-[αAllylPro]D[tBuAla][B5(21)]DTAAFL[PyrS2″][Phe(2-Cl)][Bta]Q-NH2 (staple 1-4, 4-11) [I-1169] gave an IC50 of 159 nM.

For a further experiment the target is unchanged. Kind of experiment: fluorescence polarization competition; competitor 5FAM-TCF4(10-53) probe on full-length beta-catenin.
Target sequence in this assay (P35222 whole entry): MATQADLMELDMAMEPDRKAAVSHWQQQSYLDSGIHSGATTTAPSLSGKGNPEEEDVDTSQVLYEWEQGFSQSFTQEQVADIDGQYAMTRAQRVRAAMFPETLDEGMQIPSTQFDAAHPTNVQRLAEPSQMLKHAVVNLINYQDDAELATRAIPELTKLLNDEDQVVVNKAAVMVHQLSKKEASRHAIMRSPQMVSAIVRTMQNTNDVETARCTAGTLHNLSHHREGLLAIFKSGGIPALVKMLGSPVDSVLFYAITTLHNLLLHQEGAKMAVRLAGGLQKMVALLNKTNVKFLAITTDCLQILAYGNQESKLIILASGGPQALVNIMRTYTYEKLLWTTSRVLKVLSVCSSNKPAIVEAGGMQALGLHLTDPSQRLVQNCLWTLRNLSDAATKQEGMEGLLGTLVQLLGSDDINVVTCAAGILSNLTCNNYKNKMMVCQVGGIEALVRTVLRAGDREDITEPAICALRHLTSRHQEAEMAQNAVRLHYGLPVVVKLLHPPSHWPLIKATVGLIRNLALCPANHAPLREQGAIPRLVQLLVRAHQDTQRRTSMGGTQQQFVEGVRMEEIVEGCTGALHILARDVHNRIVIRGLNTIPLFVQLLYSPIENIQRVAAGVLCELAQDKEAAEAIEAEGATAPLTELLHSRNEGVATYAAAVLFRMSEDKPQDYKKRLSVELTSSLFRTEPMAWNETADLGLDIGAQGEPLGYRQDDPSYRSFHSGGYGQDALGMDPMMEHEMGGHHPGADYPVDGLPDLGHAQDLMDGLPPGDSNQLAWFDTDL
As for Ac-[αAllylPro]D[tBuAla][B5(4)]D[hTyr]AA[Phe(3-COOH)]N[PyrS2″][3Thi][Bta]Q-NH2 (staple 1-4, 4-11; also: later eluting HPLC isomer composition) [I-2115], the half-inhibitory concentration (IC50) amounted to 29 nM.

Molecule Ac-[αAllylPro]D[tBuAla][B5(4)]D[hTyr]AA[Phe(3-COOH)]N[PyrS2″][3Thi][Bta]Q-NH2 (staple 1-4, 4-11; also: earlier eluting HPLC isomer composition) [I-2114] had an IC50 of 32 nM.

Ac-[αAllylPro]D[tBuAla][B5(3)]D[Phe(3-COOH)]A[dA]FL[PyrS2″][2F3MeF][Bta][dA]-NH2 (staple 1-4, 4-11) [I-2101] registered an IC50 of 424 nM.

Molecule Ac-[αAllylPro]D[tBuAla][B5(4)]DWAA[Phe(3-COOH)]L[PyrS2″][3Thi][Bta]Q-NH2 (staple 1-4, 4-11) [I-2129] had an IC50 of 105 nM.

Molecule Ac-[αAllylPro]N[Cha][B5(4)]DQ[Lys(iPr)]AFN[PyrS2″]F[Bta]H-NH2 (staple 1-4, 4-11) [I-2109] registered an IC50 of 136 nM.

For Ac-[αAllylPro]D[tBuAla][B5(4)]DHAA[Phe(3-COOH)]L[PyrS2″][3Thi][Bta]Q-NH2 (staple 1-4, 4-11; also: later eluting HPLC isomer composition) [I-2123], the IC50 was found to be 12 nM.

The molecule Ac-[αAllylPro]D[tBuAla][B5(4)]DYAA[Phe(3-COOH)][hSer][PyrS2″][3Thi][Bta]Q-NH2 (staple 1-4, 4-11; also: later eluting HPLC isomer composition) [I-2125] had a half-inhibitory concentration (IC50) of 26 nM.

Ac-[αAllylPro]N[Cha][B5(4)]DQ[Lys(iPr)]AF[Lys(iPr)][PyrS2″]F[Bta][hSer]-NH2 (staple 1-4, 4-11) [I-2102] gave an IC50 of 273 nM.

As to Ac-[αAllylPro]N[Cha][B5(4)]DQ[Lys(iPr)]AFN[PyrS2″]F[Bta]K-NH2 (staple 1-4, 4-11) [I-2110], the IC50 amounted to 88 nM.

Ac-[αAllylPro]D[tBuAla][B5(4)]DHAA[Phe(3-COOH)]N[PyrS2″][3Thi][Bta]Q-NH2 (staple 1-4, 4-11; also: earlier eluting HPLC isomer composition) [I-2118] came in with a 50% inhibitory concentration (IC50) of 21 nM.

Molecule Ac-[αAllylPro]N[Cha][B5(4)]DQ[Lys(iPr)]AFN[PyrS2″]F[Bta]N-NH2 (staple 1-4, 4-11) [I-2111] registered an IC50 of 180 nM.

The molecule Ac-[αAllylPro]D[tBuAla][B5(4)]DHAA[Phe(3-COOH)]N[PyrS2″][3Thi][Bta]Q-NH2 (staple 1-4, 4-11; also: later eluting HPLC isomer composition) [I-2119] yielded an IC50 of 29 nM.

In turn, Ac-[αAllylPro]D[tBuAla][B5(4)]DWAA[Phe(3-COOH)]N[PyrS2″][3Thi][Bta]Q-NH2 (staple 1-4, 4-11) [I-2127] came in with an IC50 of 36 nM.

Molecule Ac-[αAllylPro]N[Cha][B5(3)]DQ[Lys(iPr)]AFN[PyrS2″]F[Bta]Q-NH2 (staple 1-4, 4-11) [I-2113] showed an IC50 of 164 nM.

As to Ac-[αAllylPro]D[tBuAla][B5(4)]DYAA[Phe(3-COOH)][hSer][PyrS2″][3Thi][Bta]Q-NH2 (staple 1-4, 4-11; also: earlier eluting HPLC isomer composition) [I-2124], the IC50 was 29 nM.

Molecule Ac-[αAllylPro]D[tBuAla][B5(5)]D[Phe(3-COOH)]A[dA]FL[PyrS2″][2F3MeF][Bta]A-NH2 (staple 1-4, 4-11; also: later eluting HPLC isomer) [I-2099] had an IC50 of 325 nM.

As for Ac-[αAllylPro]N[Cha][B5(3)]DQ[Lys(iPr)]AFN[PyrS2″]F[Bta]T-NH2 (staple 1-4, 4-11) [I-2112], the IC50 is 501 nM.

Ac-[αAllylPro]D[tBuAla][B5(4)]D[hTyr]AA[Phe(3-COOH)][hSer][PyrS2″][3Thi][Bta]Q-NH2 (staple 1-4, 4-11; also: earlier eluting HPLC isomer composition) [I-2116]: the IC50 came out at 19 nM.

In the case of Ac-[αAllylPro]D[tBuAla][B5(4)]DWAA[Phe(3-COOH)][hSer][PyrS2″][3Thi][Bta]Q-NH2 (staple 1-4, 4-11) [I-2128], the IC50 is 29 nM.

Ac-[αAllylPro]D[tBuAla][B5(4)]D[Phe(3-COOH)]A[dA]FL[PyrS2″][2F3MeF][Bta]A-NH2 (staple 1-4, 4-11; also: earlier-eluting HPLC isomer composition) [I-2098] registered an IC50 of 260 nM.

The molecule Ac-[αAllylPro]D[tBuAla][B5(4)]DHAA[Phe(3-COOH)]L[PyrS2″][3Thi][Bta]Q-NH2 (staple 1-4, 4-11; also: earlier eluting HPLC isomer composition) [I-2122] showed an IC50 of 12 nM.

Ac-[αAllylPro]D[tBuAla][B5(4)]DYAA[Phe(3-COOH)]L[PyrS2″][3Thi][Bta]Q-NH2 (staple 1-4, 4-11) [I-2126] gave an IC50 of 68 nM.

Ac-[αAllylPro]D[tBuAla][B5(4)]DD[Lys(iPr)]AFL[PyrS2″][Phe(2-Cl)][Bta][Thr(ol)] (staple 1-4, 4-11) [I-1313] registered an IC50 of 12 nM.

For the molecule [αAllylPro]D[tBuAla][B5]DDAAFF[PyrS2][Cha][Bta]Q-NH2 (staple 1-4, 4-11) [I-1331], the IC50 is 75 nM.

Molecule Ac-[αAllylPro]D[tBuAla][B5(4)]D[hTyr]AA[Phe(3-COOH)][hSer][PyrS2″][3Thi][Bta]Q-NH2 (staple 1-4, 4-11; also: later eluting HPLC isomer composition) [I-2117] registered an IC50 of 19 nM.

A further experiment shares this target. Kind of experiment: fluorescence polarization competition; full-length beta-catenin; competitor 5FAM-TCF4(10-53) probe.
Target sequence in this assay (P35222 whole entry): as above
Ac-[αAllylPro]D[Cha][B5(4)]DTAAFT[PyrS2″][3Thi][Bta]Q-NH2 (staple 1-4, 4-11) [I-1173] showed an EC50 of 12 nM.

Molecule Ac-[αAllylPro][ξβ3hD][tBuAla][B5(4)]D[TfeGA]AAFN[PyrS2″][3Thi][Bta]Q-NH2 (staple 1-4, 4-11) [I-1161] showed an EC50 of 24 nM.

In turn, Ac-[αAllylPro]D[tBuAla][B5(4)]DTAAFT[PyrS2″][3Thi][Bta]Q-NH2 (staple 1-4, 4-11) [I-1166] displayed an EC50 of 14 nM.

On to Ac-[αAllylPro]D[tBuAla][B5(21)]DTAAFL[PyrS2″][Phe(2-Cl)][Bta]S-NH2 (staple 1-4, 4-11) [I-1172], for which the half-maximal effective concentration (EC50) is 45 nM.

Consider Ac-[αAllylPro]D[tBuAla][B5(21)]DTAAFL[PyrS2″][3Thi][Bta]S-NH2 (staple 1-4, 4-11) [I-1171], for which the concentration for a half-maximal effect (EC50) amounted to 70 nM.

In turn, Ac-[αAllylPro]D[tBuAla][B5(21)]DTAAFT[PyrS2″][Phe(2-Cl)][Bta]Q-NH2 (staple 1-4, 4-11) [I-1168] yielded an EC50 of 25 nM.

For the molecule Ac-[αAllylPro]D[tBuAla][B5(4)]DTAAFL[PyrS2″][3Thi][Bta]Q-NH2 (staple 1-4, 4-11) [I-1167], the EC50 stood at 34 nM.

Ac-[αAllylPro]D[tBuAla][B5(4)]DTAAFT[PyrS2″][3Thi][Bta]S-NH2 (staple 1-4, 4-11) [I-1170]: the EC50 worked out at 15 nM.

As to Ac-[αAllylPro]D[tBuAla][B5(21)]DTAAFL[PyrS2″][Phe(2-Cl)][Bta]Q-NH2 (staple 1-4, 4-11) [I-1169], the EC50 was 159 nM.

The values are drawn from patent US20240116985A1, “STAPLED PEPTIDES AND METHODS THEREOF” (priority 2020, published 2024).
